The target in test [1] is ICab A4, displayed on the yeast cell surface (camel). Nature of the test: flow cytometry on cells. A general note: Flow cytometry measures light scatter and fluorescence of single cells or particles in a stream.
Test [2] deals with ICab B7, displayed on the yeast cell surface (camel). Nature of the test: flow cytometry on cells.
In a further test the target is five unique clones. Description: flow cytometry on cells.
For test [3], the target named is QacA WT (tagged with GFP) (Staphylococcus aureus, UniProt P0A0J9). Nature of the test: immunostaining of cells or tissue.

B1: QacA_(D411N)GFP (natural protein)
chain: MISFFTKTTDMMTSKKRWTALVVLAVSLFVVTMDMTILIMALPELVRELEPSGTQQLWIVDIYSLVLAGFIIPLSAFADKWGRKKALLTGFALFGLVSLAIFFAESAEFVIAIRFLLGIAGALIMPTTLSMIRVIFENPKERATALAVWSIASSIGAVFGPIIGGALLEQFSWHSAFLINVPFAIIAVVAGLFLLPESKLSKEKSHSWDIPSTILSIAGMIGLVWSIKEFSKEGLADIIPWVVIVLAITMIVIFVKRNLSSSDPMLDVRLFKKRSFSAGTIAAFMTMFAMASVLLLASQWLQVVEELSPFKAGLYLLPMAIGDMVFAPIAPGLAARFGPKIVLPSGIGIAAIGMFIMYFFGHPLSYSTMALALILVGAGMASLAVASALIMLETPTSKAGNAAAVEESMYNLGNVFGVAVLGSLSSMLYRVFLDISSFSSKGIVGDLAHVAEESVVGAVEVAKATGIKQLANEAVTSFNDAFVATALVGGIIMIIISIVVYLLIPKSLDITKQK
In the case of B1, the dissociation constant Kd (usually the constant that tells how readily two partners part at equilibrium) amounted to 65 nM in test [1] and 100 nM in test [2]. Moreover, in the test with five unique clones, the population shift lay in the range of 65 to 97%.

B2: ICab A4, purified (VHH)
VHH: QVQLQESGGGSVQTGGSLRLSCAASGYRYSDNCVGWFRQAPGREREAVATYNSGSSTWYADSVKGRFTISQDSAKSTVYLQMNNLKPEDTAMYYCAGRNRLGSYCYMTGDFAYWGQGTQVTVSS
On to B2, for which the binding result in test [3] is reported as “binds”.

B3: ICab B7, purified (VHH)
VHH: QVQLQESGGGSVQAGGSLRLSCAASGYTNSRKCMGWFRQIPGKEREGVAAIYGFGRGLILYADSVKGRFTISQDNAKNTVYLQMNSLKPEDTAMYYCAADSPGSCLSRSGYNYWGQGTQVTVSS
With B3, the binding result in test [3] is listed as “binds”.

The values above are taken from article doi:10.1101/2022.07.09.499445 (bioRxiv, 2022).
